Several values for one entry are separate records, joined by “and”; a condition that tells them apart may be missing. Equal entries are not always repeated. Each block holds one molecule with its values, some of them ahead of it.
Experiments:
FcγR-Ia = FcγR-Ia (Homo sapiens, UniProt P12314); assay: SPR
[1] = test system: macrophages co-cultured with Toledo lymphoma cells; assay: qRT-PCR of macrophages sorted from Toledo lymphoma co-cultures; assay type: cell-based, human; details: qRT-PCR on macrophages isolated by FACS from Toledo co-cultures
Experimental: FIG. 8D: Macrophage:Toledo lymphoma co-cultures were harvested 2 hours into phagocytosis assays in the presence of rituximab ([…]), SIRPα-Fc-CD40L ([…]), or the combination of both agents. Macrophages were isolated by CD11b+FACS, RNA was prepared, cDNA synthesized, and gene expression (IFNa1, IFNb1, CD80, and CD86) assessed by qRT-PCR. Fold change was calculated using DDCT and values obtained from the housekeeping gene ACTB, and the corresponding values from untreated samples. […] After 2 hours, co-cultures were isolated from tissue culture vessels and were stained with a fluorescently conjugated CD11b antibody to discriminate macrophages. Cells were then assessed by flow cytometry for the co-localization of fluorescent signal from both cells types. […] After 24-hours type I interferon induced luminescence was assessed using a luminometer. The maximum luminescence (RLU) from each experiment was set to 1, and all other samples were normalized accordingly. […]
RNA was prepared from macrophages isolated using fluorescent activated cell sorting (FACS) from SIRPα-Fc-CD40L/Rituximab treated co-cultures macrophages and Toledo lymphoma cells. The RNA was assessed by gRT-PCR for expression of IFNα1 and IFNβ1, and the macrophage activation markers CD80 and CD86.

tumors = assay: Mouse tumor model, SIRPα-Fc-OX40L and checkpoint antibodies (Example 14)
[2] = target: recombinant human CD40 (human) (UniProt P25942); assay: SPR
recombinant mouse CD47 = target: T1, recombinant mouse CD47 (mouse, UniProt Q61735 19-140, limits assumed); assay: dual ELISA: coat mCD47-Fc, titrated mSIRPα-Fc-CD40L, detect mCD40-His, tertiary anti-his-HRP, OD450. Signal needs both CD47 and CD40 to be bound.
T1 construct: also called murine CD47
T1 sequence (looked up): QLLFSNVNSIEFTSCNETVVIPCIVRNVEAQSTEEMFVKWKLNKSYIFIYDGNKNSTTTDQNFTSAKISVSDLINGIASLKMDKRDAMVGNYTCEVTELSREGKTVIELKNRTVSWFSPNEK

recombinant mouse CD40 = target: T2, recombinant mouse CD40 (mouse, UniProt P27512 20-193, limits assumed); assay: dual ELISA: coat mCD47-Fc, titrated mSIRPα-Fc-CD40L, detect mCD40-His, tertiary anti-his-HRP, OD450. This is the same curve as the CD47 row. mCD40-His is the detecting receptor.
T2 construct: also called murine CD40
T2 sequence (P27512 20-193 limits assumed): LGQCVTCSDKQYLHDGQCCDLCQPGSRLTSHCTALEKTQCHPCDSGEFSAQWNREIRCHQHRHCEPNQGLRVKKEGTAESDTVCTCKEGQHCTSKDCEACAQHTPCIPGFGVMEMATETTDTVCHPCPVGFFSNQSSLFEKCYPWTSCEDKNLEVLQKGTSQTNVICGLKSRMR

FcγR-Ia, sequence (P12314 16-288 limits assumed): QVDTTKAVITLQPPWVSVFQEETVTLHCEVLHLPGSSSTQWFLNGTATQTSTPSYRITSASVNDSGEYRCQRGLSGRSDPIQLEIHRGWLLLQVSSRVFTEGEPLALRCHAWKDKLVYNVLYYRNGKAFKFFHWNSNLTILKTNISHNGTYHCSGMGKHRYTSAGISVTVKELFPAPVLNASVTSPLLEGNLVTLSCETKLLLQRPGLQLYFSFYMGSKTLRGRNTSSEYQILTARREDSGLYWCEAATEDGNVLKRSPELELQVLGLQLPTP
recombinant human CD40 (human), sequence (P25942 21-193 limits assumed): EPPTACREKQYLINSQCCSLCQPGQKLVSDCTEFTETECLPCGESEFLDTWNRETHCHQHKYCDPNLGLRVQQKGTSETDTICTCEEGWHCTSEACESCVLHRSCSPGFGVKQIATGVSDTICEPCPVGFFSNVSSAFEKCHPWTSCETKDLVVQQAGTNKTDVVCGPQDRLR

Molecule: rituximab: anti-CD20 antibody [reference compound]
- macrophage activation (CD80, CD86) and expression of type I interferon genes (IFNα1, IFNβ1) [1]: induced macrophage activation and the expression of type I interferon genes

Molecule: SIRPα(CD172a)-Fc-OX40L: Chimeric protein: ECD of SIRPα and ECD of OX40L fused via an antibody Fc domain (human sequence SEQ ID NO: 61)
- tumor size (tumors; mouse, in vivo): effective in reducing tumor size
- survival (tumors; sixteenth day following treatment): had any survivors by the sixteenth day following treatment

B1: murine SIRPα-Fc-CD40L chimeric protein (Fc fusion)
chain: KELKVTQPEKSVSVAAGDSTVLNCTLTSLLPVGPIRWYRGVGPSRLLIYSFAGEYVPRIRNVSDTTKRNNMDFSIRISNVTPADAGIYYCVKFQKGSSEPDTEIQSGGGTEVYVLAKPSPPEVSGPADRGIPDQKVNFTCKSHGFSPRNITLKWFKDGQELHPLETTVNPSGKNVSYNISSTVRVVLNSMDVNSKVICEVAHITLDRSPLRGIANLSNFIRVSPTVKVTQQSPTSMNQVNLTCRAERFYPEDLQLIWLENGNVSRNDTPKNLTKNTDGTYNYTSLFLVNSSAHREDVVFTCQVKHDQQPAITRNHTVLGFAHSSDQGSMQTFPDNNATHNWNHRRLDKVEEEVNLHEDFVFIKKLKRCNKGEGSLSLLNCEEMRRQFEDLVKDITLNKEEKKENSFEMQRGDEDPQIAAHVVSEANSNAASVLQWAKKGYYTMKSNLVMLENGKQLTVKREGLYYVYTQVTFCSNREPSSQRPFIVGLWLKPSSGSERILLKAANTHSSSQLCEQQSVHLGGVFELQAGASVFVNVTEASQVIHRVGFSSFGLLKL
- EC50 (recombinant mouse CD47): 7.37 nM and 8.73 nM
- EC50 (recombinant mouse CD40): 7.37 nM and 8.73 nM

Next, values leading:

- Kd (FcγR-Ia): 8.42 nM
- koff (FcγR-Ia): 0.000156 s⁻¹
- kon (FcγR-Ia): 18400 M⁻¹ s⁻¹
Molecule: IgG1 (antibody)

- Kd [2]: 1.15 nM
- koff [2]: 0.000351 s⁻¹
- kon [2]: 304000 M⁻¹ s⁻¹
Molecule: Fc-CD40L (Fc fusion)
